{
  "source": "paper doi:10.1101/2021.09.20.461157",
  "about": "(bioRxiv, 2021)",
  "target": "the molecule itself",
  "test": "cryo-EM structure",
  "data": [
    {"protein": "Mouse EHD4 (residues 22-541, EHD4^ΔN) (domain or fragment, UniProt Q9EQP2 22-541, looked up) QTVTGGLRSLYQRKVLPLEEAYRFHEFHSPALEDADFENKPMILLVGQYSTGKTTFIRYLLEQDFPGMRIGPEPTTDSFIAVMYGETEGSTPGNALVVDPKKPFRKLSRFGNAFLNRFMCSQLPNQVLKSISIIDSPGILSGEKQRISRGYDFCQVLQWFAERVDRIILLFDAHKLDISDEFSEAIKAFRGQDDKIRVVLNKADQVDTQQLMRVYGALMWSLGKVINTPEVLRVYIGSFWAQPLQNTDNRRLFEAEAQDLFRDIQSLPQKAAVRKLNDLIKRARLAKVHAYIISYLKKEMPNMFGKENKKRELIYRLPEIYVQLQREYQISAGDFPEVKAMQEQLENYDFTKFHSLKPKLIEAVDNMLTNKISSLMGLISQEEMNMPTQMVQGGAFDGTTEGPFNQGYGEGAKEGADEEEWVVAKDKPVYDELFYTLSPINGKISGVNAKKEMVTSKLPNSVLGKIWKLADCDCDGMLDEEEFALAKHLIKIKLDGYELPNSLPPHLVPPSHRKSLPKAD", "values": [
      {"measurement": "binding result", "result": "binds"}
    ]}
  ]
}
